pKd: −log10 of the molar value. Read-outs that look alike come from different tables or passages of the source. One block for each substance: values may come before it.
What was measured:
[1] = target: Actin (Oryctolagus cuniculus) (UniProt P68135); details: cited from earlier work
[2] = target: actin filaments (UniProt P68135); test: co-sedimentation
[3] = target: Actin (Oryctolagus cuniculus) (UniProt P68135); details: cited from earlier work; remark: listed apart in the source
[4] = target: actin filaments (UniProt P68135); test: co-sedimentation; remark: listed apart in the source

Substance: Dystrophin DysN-R17 (from UniProt P11531)
pKd [1]: 6.12

pKd [2]: 5.16
Substance: DP260 isoform of dystrophin

Substance: Dystrophin (from UniProt P11531)
pKd [3]: 6.52

pKd [4]: 6.82
pKd [2]: 6.96
Substance: full-length dystrophin, P11531 1-3678

Reference: PMC3273627
